According to the supplement of paper PMC9170038:

System: MS2 coat protein
Experiment: apparent KD of MS2 coat protein; designed switch direction (-1 OFF switch, 1 ON switch): -1; higher = weaker reporter binding
In short: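 RNA switches sharing common flanks were transcribed by stalled E. coli RNA polymerase on Illumina chips. A doubling series of SNAP-549-labelled MS2 coat protein, from 0.7 or 1.5 nM to 3 µM, was applied in Tris-HCl pH 7.5 buffer with KCl, MgCl2, BSA, DTT, tRNA and Tween-20. Each step lasted 0.8–1.5 h at the bottom of the series and 10–20 min at the top. Normalised cluster fluorescence was curve-fitted, giving apparent KD as the per-design median over clusters.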

[1] = Eterna round: R95, input ligand: FMN 200 uM
[2] = Eterna round: R95, input ligand: microRNA oligo, concentration not stated
[3] = Eterna round: R95, input ligand: none
[4] = input ligand: microRNA oligo, concentration not stated

Sequence	apparent KD of MS2 coat protein (input ligand: FMN 200 uM)	apparent KD of MS2 coat protein (input ligand: none)	further results
CUGAGGUAGCGGUCCUAUGACAUGAGGAUCACCCAUGUACCUUGCUACGAGCUUUUUGCUCGUCUUAUGAUUCUCGG [JL Atriat mod 4] (puzzle: Sensor v3, turn-off variant 1)			apparent KD of MS2 coat protein [1]: 166 nM; apparent KD of MS2 coat protein [2]: 93.9 nM; apparent KD of MS2 coat protein [3]: 250 nM
GCGCGAAGGUAGGAUAUCGAGGGAUCUUCCCGCCGAGAAGGACCCACAUGAGGAUCACCCAUGUGGUGAUCCUG [eternacac ex6r4 sub9] (Eterna round: R97, puzzle: Exclusion 6)	27.1 nM	49.4 nM	
AAUUAGUAUGUGAGGAUAUUGACGUAAUGACUGGUUAAGAAGGCACAUGAGGAUCACCCAUGUGGGAAGUCACG [JR_BMEx4_Sub011] (Eterna round: R97, puzzle: Brourd's mod of Exclusion 4)	56.8 nM	15.2 nM	
AAUACAAGCUAUUGAUCCCACAUGAGGAUCACCCAUGUAGGAGGCCGUGAGACCUCCUUUACGAUAGCUCGUCUUAU [Sensor-V1 #52] (Eterna round: R97, puzzle: Sensor, turn-off variant 1)	211 nM	208 nM	
AAAGAACAUGAGGAUCACCCAUGUGAGGAUAUGUGAGAAUUGUGGAGAAGAAGAGAGAACAGAAGGCACUGAGG [JR_Exclu1_Sub067] (puzzle: Exclusion 1)			apparent KD of MS2 coat protein [1]: 77 nM; apparent KD of MS2 coat protein [2]: 51.3 nM; apparent KD of MS2 coat protein [3]: 64.5 nM
UAUAUAUAGUAAGGAUAUGUAUAUAUUUGAUAAACAGAAGGUACUGACAUGAGGAUCACCCAUGUUUUAGUGUGGGCAUGUAGA [JMF's solution 64] (Eterna round: R96, puzzle: Exclusion NG 1)			apparent KD of MS2 coat protein [4]: 48.4 nM
CAGUCAGCGCAGGAUAUCUGCUCGGUGACAGACGGAGAAGGGUGCACAUGAGGAUCACCCAUGUGAAUCUCUAA [Eternabot (Original) Solution 3] (Eterna round: R97, puzzle: Exclusion 6)	21.4 nM	28.5 nM	
UUUAGUUCAGGAUAUGAUGAAUUAUACAUGAGGAUCACCCAUGUAGAUCCUGAAUUAACAUCAGAAGGGAACAUUU [JL-ex5-4.46 Brourd mod] (Eterna round: R97, puzzle: Exclusion 5)	23 nM	16.4 nM	
AGUUAGAUAGGAUAUGCCCGAGAUAACAUGAGGAUCACCCAUGUGACCGAAUCUAUUCUAGCAGAAGGGUUUAGGA [Mod of ViennaUCT 18 - Jieux - Exclusion 5] (Eterna round: R97, puzzle: Exclusion 5)	23.6 nM	31.3 nM	
GUGAAGUAAGGAUAUAGUGGAAAAGAUAAGGUAUGAGAGUUCUAGAAGGUACAUGAGGAUCACCCAUGUUAGGG [JR_Exclu4_Sub085] (Eterna round: R96, puzzle: Exclusion 4)	324 nM	360 nM	apparent KD of MS2 coat protein [4]: 212 nM
AAGGGACAUGAGGAUCACCCAUGUCAGGAUAUUAGUGUGAGUCACCUUGUGAAUACACUAAGAAGGGAUAGAAA [Eternabot (Original) Solution 38] (Eterna round: R97, puzzle: Exclusion 1)	69.8 nM	84.5 nM	
CGUCUGUAAGGAUAUGGUUACAUAGACAUGAGGAUCACCCAUGUUACGUGGGACUAGUGAUUAGAAGGUACGAACG [EX5 #67] (Eterna round: R97, puzzle: Exclusion 5)	54.7 nM	51.2 nM	
AGCCAAGCAGGAUAUGCCCGGAAUAACAUGAGGAUCACCCAUGUGACCGAUUGAUGUUCUGCAGAAGGGCUUGGAA [Erxesoan mod] (Eterna round: R97, puzzle: Exclusion 5)	214 nM	28.8 nM	
CUUUUGUGAGGAUAUUAGUAGUAAAAAAAUAAAAUUACUACUGAGAAGGCACAUGAGGAUCACCCAUGUUCUUC [salish99_ex4_r3_038] (puzzle: Exclusion 4)			apparent KD of MS2 coat protein [2]: 17.5 nM
GAGUUAGCGUGAGGAAUAUACAUGAGGAUCACCCAUGUUAGCUAAUAUAUUGCUCGUCUUAUAACAACAAUUAACUC [Alarm 10 - Jieux - Sensor, turn-off variant 1] (Eterna round: R97, puzzle: Sensor, turn-off variant 1)	14.6 nM	13.2 nM	
GGCCUUCCACAAGCUUUUUACAUGAGGAUCACCCAUGUGGUUUUUAGUCUUAUCCCGGGCCCGAUGUCGGGCCCGGG [-33.4, -54.7, A 16%] (Eterna round: R97, puzzle: Sensor, turn-off variant 1)	27.4 nM	28.4 nM	
GAAAACGCAGAGGAUAUUUCAGAUCAAAGCUGCAAAGAAGGCUGCACAUGAGGAUCACCCAUGUGGUCUUUAAA [Quesina] (Eterna round: R96, puzzle: Exclusion 6)			apparent KD of MS2 coat protein [4]: 16 nM
AACCAGCGAGGAUAUGCUUGAGCUUGUUCUGGUCAGAAUCGACUUGAGGAUCACCCAAGUAGAAGGUGCUGACG [EX2 #60] (Eterna round: R97, puzzle: Exclusion 2)	18.7 nM	16.9 nM	

Sequence	apparent KD of MS2 coat protein (input ligand: FMN 200 uM)	apparent KD of MS2 coat protein (input ligand: none)	further results
UUGAUAUGAGGAUAUUGCUAAGUCGACAUGAGGAUCACCCAUGUGAAGGAAUGUUUAUUGCAAGAAGGCGUCGCGG [Eternabot (L1) Solution 10] (Eterna round: R97, puzzle: Exclusion 5)	49.5 nM	60.5 nM	
UUUUACAUAGGAUAUAGUCUUUUUUACAUGAGGAUCACCCAUGUCUCUCUUUUUUUUUUUCUAGAAGGAUGUUUUU [JR_E5_Sub017] (puzzle: Exclusion 5)			apparent KD of MS2 coat protein [2]: 16.8 nM
CCUCGACAUGAGGAUCACCCAUGUGAGGAUAUGGCCUGUAUGGCGUGAGCUGAAUCAAUCAGAAGGCGCGUGGG [salish99_ex1_r4_054] (Eterna round: R97, puzzle: Exclusion 1)	56.3 nM	27 nM	
GGAGAGAGAGGAUAUGGAGGAAAGAACAUGAGGAUCACCCAUGUAGAGCCUCAAGAUCGACCAGAAGGCUCAGUCC [AK-MS2ROC-r4-exclusion5-10] (Eterna round: R97, puzzle: Exclusion 5)	150 nM	27.5 nM	
ACAAGCUUUUUGCUCGGGUACAUGAGGAUCACCCAUGUUGUGUUUUAUUGUUUUUGAUUGUUCGUGCGCUGCAGGUU [JR_SV3TOV1_Sub074] (puzzle: Sensor v3, turn-off variant 1)			apparent KD of MS2 coat protein [1]: 42.7 nM; apparent KD of MS2 coat protein [2]: 38.5 nM; apparent KD of MS2 coat protein [3]: 58.3 nM
AGAAGACAUGAGGAUCACCCAUGUAAGGAUAUCGAAGGUAAGAGAGGAAAGAAGGGAACGAGAAGGUACAGGUG [JR_Exclu1_Sub096] (puzzle: Exclusion 1)			apparent KD of MS2 coat protein [1]: 91.6 nM; apparent KD of MS2 coat protein [2]: 107 nM; apparent KD of MS2 coat protein [3]: 156 nM
GGAUCUACUGAGGAUAUUAUAUCACCCGACUGAUAAGAAGGCAGUACAUGAGGAUCACCCAUGUGGGUAGCCAC [Polaris7] (Eterna round: R97, puzzle: Exclusion 6)	79.6 nM	99.4 nM	
UUUUGGCAUGUAGGAUAUGGGUCCGAUUAGGAUUUAGAAGGACAUGAGGAUCACCCAUGUGCAUUUAAUUGGUCUUUACCUUUU [EXclNG1-LROPPY12] (Eterna round: R96, puzzle: Exclusion NG 1)	130 nM	82.5 nM	apparent KD of MS2 coat protein [4]: 82.1 nM
CCAGUGUGAGGAUAUACAUGGAUAGUUUUAUAUAGUAUGUUACAUGAGGAUCACCCAUGUAGAAGGUAUAUCGG [15.1, 13.8 kcal, A 31%] (Eterna round: R97, puzzle: Exclusion 2)	22.5 nM	28.7 nM	
UCAUGUUAGCAGGAUAUGCUAUUUAUUUUUUAUGCAGAAGGGCUUACAUGAGGAUCACCCAUGUAUUAAGUUUU [JR_E6_Sub074] (puzzle: Exclusion 6)			apparent KD of MS2 coat protein [2]: 115 nM
AGUUGGCGAGGAUAUACAUGAGGAUCACCCAUGUGAAAUCCAAGUGAGGAAAUGAAAAGUAGAAGGCGCUGACA [Mod of Mat 23 - Jieux - Exclusion 3] (Eterna round: R97, puzzle: Exclusion 3)	50 nM	20.8 nM	
GACUGCUGAGGAUAUACAUGAGGAUCACCCAUGUGCUUCAGCUAGGAGACUAGCAUUGGUAGAAGGUAGUAGUC [LRO-Excl3-03] (puzzle: Exclusion 3)			apparent KD of MS2 coat protein [2]: 10.3 nM
UGAAGUAGAGGAUAUACGUGGAAAUAGAUUCAUGUUAAUCUACAUGAGGAUCACCCAUGUAGAAGGCUAUAGAU [JR_Ex2_Sub074] (Eterna round: R97, puzzle: Exclusion 2)	69.3 nM	24.3 nM	
AAGAAACAUGAGGAUCACCCAUGUGAGGAUAUGAAAAAUAAAAUAAAAGAAAUAAUAAUCAGAAGGCACAAAGG [Mat - Mod of Hog D8] (puzzle: Exclusion 1)			apparent KD of MS2 coat protein [1]: 44.5 nM; apparent KD of MS2 coat protein [2]: 36.1 nM; apparent KD of MS2 coat protein [3]: 30.5 nM
AGCUGUGGCCGAGGAUAUCCACAUGAGGAUCACCCAUGUUGAUACGCCGUUAGGCGAUAUAGAAGGGAGAAGGCGGUCUCAGCA [Eli eng2 - 050] (Eterna round: R96, puzzle: Exclusion NG 2)	7.84 nM	13.7 nM	apparent KD of MS2 coat protein [4]: 7.26 nM
GGUUGGCGAGGAUAUACAUGAGGAUCACCCAUGUGGUCCUAAAAUAAAAUAGACCUUUGUAGAAGGCGCGGGUC [salish99_ex3_r4_040] (Eterna round: R97, puzzle: Exclusion 3)	139 nM	215 nM	
UGCCGUAGAGGAUAUACGUAGAAAUAGAUUCAUGUAAAACUACAUGAGGAUCACCCAUGUAGAAGGCUAUGGCU [JL-ex2-4.32 Eli mod] (Eterna round: R97, puzzle: Exclusion 2)	243 nM	25.3 nM	
